# Measurements published in patent US9951373B2, “Oplophorus-derived luciferases, novel coelenterazine substrates, and methods of use” (Promega Corporation, priority 2010, dated 2018).
# Tests used:
# [1] = Thermal stability of OgLuc variants at 60° C.; format: physicochemical; conditions: 60° C., assay buffer MES pH 6.0
# Protocol: Aliquots were removed at different time-points and placed on dry ice to freeze the samples. […] Luminescence was measured on a GLOMAX® luminometer (Promega Corp.).
# The thermal stability of the variants at 60° C. was examined as described above, except the assay buffer contained 100 mM MES pH 6.0 instead of HEPES.
# [2] = Enzyme kinetics of OgLuc variants in E. coli lysates; format: biochemical; conditions: PBI-3939, E. coli lysates
# Protocol: Using methods known in the art, enzyme kinetic assays measuring luminescence were performed with the lysates of E. coli containing IV and the IV variants 15C1, 9B8, 9F6, and 9A3. […] Two fold serial dilutions of PBI-3939 in the assay buffer described previously in Example 26 were assayed with the diluted lysates. […] Variants 9B8 and 9F6 had higher Km values compared to IV while Km values for the other variants were unchanged.
# Luminescence was measured on a TECAN® INFINITE® F500 luminometer.
# The enzyme kinetics values were determined for the OgLuc variants as described previously, except luminescence was measured using a GLOMAX® luminometer. Three replicates were used for each variant.
# [3] = test system: HEK293 cells; assay: Luminescence of OgLuc variants expressed in HEK293 cells; format: cell-based, human; conditions: PBI-3939
# Protocol: (§1) The PCR library in the pF4Ag-based non-fusion background was screened for additional variants with increased luminescence compared to 9B8 opt+K33N+170G (SEQ ID NOs: 68 and 69). Selected variants were then assayed in HEK293 and NIH3T3 cells. For each cell type, 15,000 cells were plated and grown overnight at 37° C. The next day, the cells were transfected as described in Example 25 with 10 ng pGL4.13 (Promega Corp.) as a transfection control and 100 ng of the OgLuc test DNA. The media was removed, and the cells were lysed with 100 μL of lysis buffer as described in Example 25 except the lysis buffer contained 100 mM MES pH 6.0 instead of HEPES, and luminescence measured using a GLOMAX® Luminometer.
# (§2) Based on the above data, further combination variants were designed and generated (see Table 10) in the context of the pF4Ag-based non-fusion vector background without the 170G. The variants were analyzed in E. coli, HEK293 and NIH3T3 cells as described above and compared to 9B8 opt+K33N. The variants were also examined for luminescence with native coelenterazine.
# (§3) The brightness of the variants expressed in HEK293 and NIH3T3 cells was measured as described previously. The luminescence of the variants was normalized to the luminescence generated by 9B8 opt (Table 27).
# [4] = Stability of secreted OgLuc variants in saved media; format: physicochemical; conditions: secreted variant in saved media
# Protocol: To determine if the secretion signal sequence of OgLuc facilitates its secretion, the OgLuc variants 9B8, V2 and L27V were cloned into pF4Ag containing an N-terminal OgLuc secretion signal sequence. The variants were also cloned into vectors without the secretion signal sequence. CHO or HeLa cells were then plates at 100,000 cells/well in 1 mL F12 media with 10% FBS and 1× sodium pyruvate (CHO cells) or DMEM with 10% FBS and 1× sodium pyruvate (HeLa cells) into 12-well plates and incubated overnight at 37° C., 5% CO2.
# After the overnight incubation, the cells were transfected with 1 μg plasmid DNA containing 9B8, V2, or L27V with or without the secretion signal sequence using the TRANSIT®-LT1 transfection reagent (Mirus Bio) and OPTI-MEMO media (Invitrogen). The cells were again incubated overnight at 37° C., 5% CO2.
# After the second overnight incubation, the media was removed and saved for analysis. […] To 10 μL of cell lysate or saved media from each sample, 50 μL assay buffer with 40 μM PBI-3939 was added, and luminescence measured as described above.
# To determine the stability of the secreted variants, 150 μL aliquots of the saved media from each sample was placed at 37° C. or 50° C. The aliquots were then removed at different time points (0, 1, 2, 3, 5, 6, and 7 […]), frozen on dry ice, and kept at −20° C. until assayed. To assay for stability, the media aliquots were thawed to room temperature, and 10 μL of each aliquot was mixed with assay buffer with PBI-3939 (pH 6.0) as described above. Luminescence was measured as above, and the half-life (t50) determined (Table 34).
# [5] = Luminescence of 9B8 opt+K33N derived variants in E. coli; format: biochemical; conditions: bacterial lysates
# Protocol: Luminescence generated from the lysates was measured using the novel PBI-3939 and native coelenterazine as substrates. The relative specificity of the variants for PBI-3939 and native coelenterazine was calculated as described previously.
# A new OgLuc library was created using 9B8opt+K33N as a starting template. The random library was created using DIVERSIFY® PCR Random Mutagenesis Kit (ClonTech; Catalog #630703). Condition 5 (as listed in the user manual) was used to generate additional variants, and the average mutation rate was calculated to be 2.6 mutations per gene by compiling sequence data from 83 randomly selected clones. This PCR library was cloned into the pF4Ag-based, non-fusion vector background described previously and the sandwich background, i.e., Id-OgLuc-HT7 (described in Example 45). Variants in the pF4Ag-base non-fusion vector background are designated with (NF). Variants in the sandwich vector background are designated with (F). In order to clone the PCR product into both vectors, an amino acid, i.e., a glycine, was appended to the variant sequence in pF4Ag, generating a new position 170 in the OgLuc variant (“170G”). The 170G is present in the sandwich construct, but in this case is considered part of the linker between OgLuc and HT7. For each library, 4,400 E. coli clones were assayed as described previously with the following exceptions. […] The assay buffer contained 100 mM MES pH 6.0 instead of HEPES, and 35 mM thiourea. The assay volumes were as follows: 10 μL cells, 40 μL, lysis buffer, and 50 μL, assay buffer.
# E. coli lysates containing the variants were prepared and analyzed as described previously. Luminescence generated from the lysates was measured using the novel PBI-3939 and native coelenterazine as substrates. The luminescence of the variants was normalized to the luminescence generated by 9B8 opt (Table 12). The relative specificity of the variants for PBI-3939 and native coelenterazine was calculated by dividing the luminescence of the variants using PBI-3939 as a substrate with the luminescence of the variants using native coelenterazine as a substrate (Table 12).
# [6] = test system: NIH3T3 cells; assay: Luminescence of OgLuc variants expressed in NIH3T3 cells; format: cell-based; conditions: PBI-3939
# Protocol: as §1, §2, §3
# [7] = test system: HEK293 cells; conditions: mole-to-mole basis, HT7 fusions
# [8] = Stability of variants expressed in HEK293 cells; format: physicochemical; conditions: 20 μM PBI-3939
# Protocol: The variants 9B8 and V2 (9B8+K33N+T39T+K43R+Y68D) were also screened in HEK293 cells to determine their stability. The variants were cloned into pF4Ag and transfected into HEK293 cells (15,000 cells/well) as previously described. After transfection, the cells were lysed in assay reagent (as previously described; no PBI-3939), and luminescence measured using the assay reagent with 20 μM PBI-3939. […] This is consistent with the half-life seen for these variants in E. coli (Table 26).
# [9] = Protein (thermal) stability of OgLuc variants at 50° C.; format: physicochemical; conditions: bacterial lysates, native coelenterazine
# Protocol: Lysates of E. coli containing 15C1, 9B8, 9F6, 8A3 or IV and E. coli expressing hRL (SEQ ID NO: 30 and 31) were prepared from induced cultures as described previously. Lysate samples were diluted 1:1000 with a buffer containing 10 mM HEPES pH 7.5 with 0.1% gelatin. Diluted lysate (100 μL) samples, in replicate 96-well plates, were incubated at 50° C. At different time points, plates were placed at −70° C. (minus seventy degrees Celsius). Prior to measuring the luminescence as described previously, each plate was thawed at room temperature, i.e., 22° C., for 10 min. Samples (10 μL of each thawed sample) were assayed using native coelenterazine as a substrate. Luminescence was measured immediately after addition of assay buffer for each time point plate. The half-life of the protein, which indicated protein stability, was calculated from the luminescence data for each time point using methods known in the art.
molecule,measurement,setting,value
"9B8: IV variant with Q18L, F68Y, L72Q, M75K (SEQ ID NO: 19) (protein) MVFTLEDFVGDWRQTAGYNLDQVLEQGGLSSLFQKLGVSVTPIQKIVLSGENGLKIDIHVIIPYEGLSGYQMGQIEKIFKVVYPVDDHHFKVILHYGTLVIDGVTPNMIDYFGRPYEGIAVFDGKKITVTGTLWNGNKIIDERLINPDGSLLFRVTINGVTGWRLCERILA",1/2 life hours,[1],5.1 h
same,Km,[2],7.7 µM
same,Vmax,[2],"86,000,000 RLU/0.5 sec"
same,"luminescence normalized to 9B8 opt, HEK293",[3],1.0
same,½ life 37 C.,[4],8 days
same,½ life 50 C.,[4],3 h
same,Fold over coelenterazine,[5]; luminescence with PBI-3939 divided by luminescence with native coelenterazine,7
same,Fold over 9B8,[5]; luminescence with PBI-3939 normalized to 9B8 opt,1.0
same,"luminescence normalized to 9B8 opt, NIH3T3",[6],1.0
same,fold brighter than Luc2,[7],approximately 15 fold
same,fold brighter than hRL,[7],> 100 fold
same,half-life,[8],5.2 h
same,½ life (hrs),[9],5.8 h
same,½ life (min),[9],346.6 min
